Source: patent publication US20240166765A1 (ICONIC THERAPEUTICS, published 2024)
Blank lines part the entries; values can stand above or below the binder they belong to.

Columns and labels:
Relipidated TF = Relipidated TF (UniProt P13726 33-295, limits assumed); assay: cell-based or functional assay
[1] = target: Relipidated TF (Tissue Factor) (UniProt P13726 33-295, limits assumed); assay: cell-based or functional assay

B3: 25A (antibody, human IgG1, V domains shown)
VH: QVQLVQSGAEVKKPGASVKVSCKASGYTFDVYGISWVRQAPGQGLEWMGWIAPYNGNTNYAQKLQGRVTMTTDTSTSTAYMELRSLRSDDTAVYYCARDAGTYSPFGYGMDVWGQGTTVTVSS
VL: DIQMTQSPSTLSASVGDRVTITCRASQSISSWLAWYQQKPGKAPKLLIYKASSLESGVPSRFSGSGSGTEFTLTISSLQPDDFATYYCQQFQSLPPFTFGGGTKVEIK
- % Peak IIa, Ab 10 nM [1]: 97%
- % Peak IIa, Ab 50 nM [1]: 95%
- % Peak IIa, Ab 100 nM [1]: 95%
- % ttPeak, Ab 10 nM [1]: 4%
- % ttPeak, Ab 50 nM [1]: 9%
- % ttPeak, Ab 100 nM [1]: 9%
- ETP [nM · min], Ab 10 nM [1]: 2110 nM·min
- ETP [nM · min], Ab 50 nM [1]: 2120 nM·min
- ETP [nM · min], Ab 100 nM [1]: 2130 nM·min
- Lag Time [min], Ab 10 nM [1]: 5 min
- Lag Time [min], Ab 50 nM [1]: 5.2 min
- Lag Time [min], Ab 100 nM [1]: 5.2 min
- Peak IIa [nM], Ab 10 nM [1]: 322 nM
- Peak IIa [nM], Ab 50 nM [1]: 317 nM
- Peak IIa [nM], Ab 100 nM [1]: 317 nM
- ttPeak [min], Ab 10 nM [1]: 8.2 min
- ttPeak [min], Ab 50 nM [1]: 8.6 min
- ttPeak [min], Ab 100 nM [1]: 8.6 min

B4: 1F (antibody, human IgG1, V domains shown)
VH: EVQLLESGGGLVQPGGSLRLSCAASGFTFSDYAMGWVRQAPGKGLEWVSTISGSGGLTYYADSVKGRFTISRDNSKNTLYLQMNSLRAEDTAVYYCAKAPYGYYMDVWGKGTTVTVSS
VL: not shown
- % ETP, TGA 10 min pre-incubation, 10 nM Ab (Relipidated TF): 41%
- % Peak IIa, TGA […] min pre-incubation, 10 nM Ab (Relipidated TF): 16%
- % Peak IIa, TGA […] min pre-incubation, 50 nM Ab (Relipidated TF): 8%
- % Peak IIa, TGA […] min pre-incubation, 100 nM Ab (Relipidated TF): 7%
- % ttPeak, TGA 10 min pre-incubation, 10 nM Ab (Relipidated TF): 220%
- % ttPeak, TGA 10 min pre-incubation, 50 nM Ab (Relipidated TF): 433%
- % ttPeak, TGA 10 min pre-incubation, 100 nM Ab (Relipidated TF): 483%
- ETP, TGA 10 min pre-incubation, 10 nM Ab (Relipidated TF): 742 nM·min
- Lag Time, TGA 10 min pre-incubation, 10 nM Ab (Relipidated TF): 13.8 min
- Lag Time, TGA 10 min pre-incubation, 50 nM Ab (Relipidated TF): 26.5 min
- Lag Time, TGA 10 min pre-incubation, 100 nM Ab (Relipidated TF): 29.5 min
- Peak IIa, TGA […] min pre-incubation, 10 nM Ab (Relipidated TF): 44 nM
- Peak IIa, TGA […] min pre-incubation, 50 nM Ab (Relipidated TF): 23 nM
- Peak IIa, TGA […] min pre-incubation, 100 nM Ab (Relipidated TF): 20 nM
- ttPeak, TGA 10 min pre-incubation, 10 nM Ab (Relipidated TF): 22.4 min
- ttPeak, TGA 10 min pre-incubation, 50 nM Ab (Relipidated TF): 37.3 min
- ttPeak, TGA 10 min pre-incubation, 100 nM Ab (Relipidated TF): 40.8 min

B5: 1F (antibody, human IgG1, V domains shown)
VH: B4 VH
VL: not shown
- % ETP, Ab 10 nM [1]: 86%
- % Peak IIa, Ab 10 nM [1]: 47%
- % Peak IIa, Ab 50 nM [1]: 9%
- % Peak IIa, Ab 100 nM [1]: 8%
- % ttPeak, Ab 10 nM [1]: 89%
- % ttPeak, Ab 50 nM [1]: 347%
- % ttPeak, Ab 100 nM [1]: 419%
- ETP [nM · min], Ab 10 nM [1]: 1740 nM·min
- Lag Time [min], Ab 10 nM [1]: 8.2 min
- Lag Time [min], Ab 50 nM [1]: 25.6 min
- Lag Time [min], Ab 100 nM [1]: 31 min
- Peak IIa [nM], Ab 10 nM [1]: 155 nM
- Peak IIa [nM], Ab 50 nM [1]: 31 nM
- Peak IIa [nM], Ab 100 nM [1]: 25 nM
- ttPeak [min], Ab 10 nM [1]: 14.9 min
- ttPeak [min], Ab 50 nM [1]: 35.3 min
- ttPeak [min], Ab 100 nM [1]: 41 min

Further lines, results first:

- % ETP, TGA 10 min pre-incubation, 10 nM Ab (Relipidated TF): 77%
- % ETP, TGA 10 min pre-incubation, 50 nM Ab (Relipidated TF): 72%
- % ETP, TGA 10 min pre-incubation, 100 nM Ab (Relipidated TF): 66%
- % Peak IIa, TGA […] min pre-incubation, 10 nM Ab (Relipidated TF): 36%
- % Peak IIa, TGA […] min pre-incubation, 50 nM Ab (Relipidated TF): 30%
- % Peak IIa, TGA […] min pre-incubation, 100 nM Ab (Relipidated TF): 28%
- % ttPeak, TGA 10 min pre-incubation, 10 nM Ab (Relipidated TF): 159%
- % ttPeak, TGA 10 min pre-incubation, 50 nM Ab (Relipidated TF): 237%
- % ttPeak, TGA 10 min pre-incubation, 100 nM Ab (Relipidated TF): 247%
- ETP, TGA 10 min pre-incubation, 10 nM Ab (Relipidated TF): 1410 nM·min
- ETP, TGA 10 min pre-incubation, 50 nM Ab (Relipidated TF): 1300 nM·min
- ETP, TGA 10 min pre-incubation, 100 nM Ab (Relipidated TF): 1200 nM·min
- Lag Time, TGA 10 min pre-incubation, 10 nM Ab (Relipidated TF): 9.4 min
- Lag Time, TGA 10 min pre-incubation, 50 nM Ab (Relipidated TF): 14.1 min
- Lag Time, TGA 10 min pre-incubation, 100 nM Ab (Relipidated TF): 14.7 min
- Peak IIa, TGA […] min pre-incubation, 10 nM Ab (Relipidated TF): 98 nM
- Peak IIa, TGA […] min pre-incubation, 50 nM Ab (Relipidated TF): 83 nM
- Peak IIa, TGA […] min pre-incubation, 100 nM Ab (Relipidated TF): 76 nM
- ttPeak, TGA 10 min pre-incubation, 10 nM Ab (Relipidated TF): 18.1 min
- ttPeak, TGA 10 min pre-incubation, 50 nM Ab (Relipidated TF): 23.6 min
- ttPeak, TGA 10 min pre-incubation, 100 nM Ab (Relipidated TF): 24.3 min
B1: 29E (antibody, human IgG1, V domains shown)
VH: QVQLVESGGGVVQPGRSLRLSCAASGFTFRSYGMHWVRQAPGKGLEWVAVITYDGINKYYADSVEGRFTISRDNSKNTLYLQMNSLRAEDTAVYYCARDGVYYGVYDYWGQGTLVTVSS
VL: not shown

- % ETP, Ab 10 nM [1]: 95%
- % ETP, Ab 50 nM [1]: 67%
- % ETP, Ab 100 nM [1]: 62%
- % Peak IIa, Ab 10 nM [1]: 71%
- % Peak IIa, Ab 50 nM [1]: 29%
- % Peak IIa, Ab 100 nM [1]: 24%
- % ttPeak, Ab 10 nM [1]: 48%
- % ttPeak, Ab 50 nM [1]: 186%
- % ttPeak, Ab 100 nM [1]: 232%
- ETP [nM · min], Ab 10 nM [1]: 1930 nM·min
- ETP [nM · min], Ab 50 nM [1]: 1360 nM·min
- ETP [nM · min], Ab 100 nM [1]: 1260 nM·min
- Lag Time [min], Ab 10 nM [1]: 7 min
- Lag Time [min], Ab 50 nM [1]: 14.1 min
- Lag Time [min], Ab 100 nM [1]: 17.1 min
- Peak IIa [nM], Ab 10 nM [1]: 235 nM
- Peak IIa [nM], Ab 50 nM [1]: 95 nM
- Peak IIa [nM], Ab 100 nM [1]: 81 nM
- ttPeak [min], Ab 10 nM [1]: 11.7 min
- ttPeak [min], Ab 50 nM [1]: 22.6 min
- ttPeak [min], Ab 100 nM [1]: 26.2 min
B2: 29E (antibody, human IgG1, V domains shown)
VH: B1 VH
VL: not shown
